Assay results as given in PMC12608037.

Key:
[1] = test system: YihW (CsqR) K-12 MG1655 (Escherichia coli K-12 MG1655); test: EMSA; conditions: 50 mM Tris-Cl (pH not stated), 100 mM KCl, 50% glycerol, 1 mM EDTA (1x); 0.5 pmol DNA, 2-24 pmol YihW; 30 or 37 C, 30 min; 5% PAGE in 1x TBE; scale: protein:DNA molar ratio for complete binding
[2] = test system: YihW (CsqR) Nissle 1917 (Escherichia coli Nissle 1917); test: EMSA; conditions: 50 mM Tris-Cl (pH not stated), 100 mM KCl, 50% glycerol, 1 mM EDTA (1x), 0.5 pmol DNA, 2-24 pmol YihW, 30 or 37 C, 30 min, 5% PAGE in 1x TBE, scale: protein:DNA molar ratio for complete binding

Row | Substance | binding signal [1] | binding signal ([2]; 30 C, equal efficiency to Nissle fragment) | binding signal ([2]; 30 C) | binding signal ([2]; 37 C, some DNA free at 48x, weaker than K-12 fragment)
1 | yihU/V intergenic region, K-12 MG1655 | 16 | 24 |  | 
2 | yihU/V intergenic region, Nissle 1917 | 16 |  | 24 | > 48
